These results are taken from the DeepSol protein solubility set.

This data set can be described thus: soluble on expression in E. coli; label from the status in PepcDB or PDB records.
Turning to “MLRLIPNKGLKKTINTLTVAEKARINHQDIEELLLRYQRSCPEDAARNITEVTNPNQEKHEGLRVFVIQTWMALMVANSYGLETYQTLKTFMDRQGYKTQPDSTYMATEQKD”, the “soluble on expression in E. coli” value is on record as “not soluble”.

“MRWVRFFHEVGLEDVPLVGGKNASLGEMIRELSPLGVRVPEGFATTSEAYWHFLEHNGLKEAIARELGELDPEDPKALQRVSRRLRNLILKGEYPQDLREEILEAYRRLSEEAVEEEIPVAVRSSATAEDLLTASFAGQQESFLYVQGEADLLLHVKRAMASLFTARAISYRAHMGFDHLKVALSVGVQRMVRADDAASGVIFTLDPDTGHRGFVYLTAIYGLGENIVQGRVIPDGYYVHKETFREGFRAVVYRRLGAKELTLAFDPREGRLKNRPTPLYLRNRFALRDEEVLLLADWAMKIEDHYSKKRGSPTPMDIEWAKDGPTGELFVLQARPETVHSQKTPVLRVFRLLKRGEVLAEGLAVGEAIAMGRARVLKDPKEMDRFQEGEVLVTETTNPDWEPIMKKAAAIVTERGGRTSHAAIVARELGVPAVVGAVGATRSVPEGEEVTVSCAEGERGVVYRGRLPFEVEEIRPETLPRTRTRILVNVGTPEEALRTSLLPTDGVGLLRMEFVFASHVRVHPLALTRFETLPKEVRRQVEEVTEAYPDKRAYFVETLSQGIGLIAAAFYPRPVLLRFSDFKTNEYARLLGGHLFEPKEENPMLGWRGASRYYHPDYKEGFLLEVAAVRRVREEMGLKNLMVMVPFCRTPEEGEKVLEVMAEGGLRREEGGLEVHVMAEIPSNVLEAEAFAELFDGFSIGSNDLTQLALGLDRDSERVAHLFDERRETVKRLAAMLIEKAHAKGKKVGICGQAPSDYPEFAAFLVERGIDSLSLNPDALLRTVREVAEVERRLGIG”: the “soluble on expression in E. coli” value is on record as “soluble”.

For “MGSDKIHHHHHHMIYIDKNESPVTPLDEKTMTSIISATPYNLYPDAAYEQFKEAYAKFYGLSPEQIIAGNGSDELIQKLMLIMPEGPALTLNPDFFMYQAYAAQVNREIAFVDAGSDLTFDLETILTKIDEVQPSFFIMSNPHNPSGKQFDTAFLTAIADKMKALNGYFVIDEAYLDYGTAYDVELAPHILRMRTLSKAFGIAGLRLGVLISTAGTIKHIQKIEHPYPLNVFTLNIATYIFRHREETRVFLTMQRQLAEQLKQIFDTHVADKMSVFPSNANFVLTKGSAAHQLGQYVYEQGFKPRFYDEPVMKGYVRYSIATASQLKQLEEIVKEWSAKYDLSKTTKHS”, the “soluble on expression in E. coli” value is “not soluble”.

Take “MGSDKIHHHHHHAATYQVKKLMGFRHPTSYYAKSAKSGYLWNKSHTKRLHNLKNYPKTTWYATAKYSMKSVRNSGTYLKVTNGTGKAKGYVWTGYLKKGVNPANPNGTLTDPFGAAMSTYNVDDNLNKQLLNLFPGTIPDEPLQLAADFIFANAGANPDDYTSVIEELVGAENEPSVFRLSSDKRIQKNQNFLSFQRNSLKEELVTKHKKFTSFKGYRIGAYAFPKHDKRYGESMILLLPSN”: the “soluble on expression in E. coli” value was “not soluble”.

With “NKDMSFTVRGNYTFSQNIIDYYEENKLPYDYLSVTGKPFNILRGYIAEGLFSSKEEINTSADQSGFGRIRPGDIKYRDVNGDGIINDDDKVPLSYSNQLPRVMYGFGADFHWKDLTLSFLFKGSAKVDYYRSGLGNDAGWIPFYNGELGNVIKLANNPKNRWTPAWYSGTTATENPHAEFPRLSYGGNTNNSQLSSFWKRNGSFLRFQELSLKYNLKTPWIKKTGLSSVDLEFVANNLFTIDKVKYFDPEQASANGAAYPIPATYTFQVYLKF”, the “soluble on expression in E. coli” value was “not soluble”.

As to “MGHHHHHHSHIAFLGPKGSYSHLAARQYAARHFEQFIESGCAKFADIFNQVETGQADYAVVPIENTSSGAINDVYDLLQHTSLSIVGEMTLTIDHCLLVSGTTDLSTINTVYSHPQPFQQCSKFLNRYPHWKIEYTESTSAAMEKVAQAKSPHVAALGSEAGGTLYGLQVLERIEANQRQNFTRFVVLARKAI”, the “soluble on expression in E. coli” value was “soluble”.

As for “MLRISELKLPLGHPPDAMEPAILARLGLSATDLVSFAVARRANDARKKSAIQMVYSVDVVLRDEAAVLRRFEGDHHLRVTPDTGYHFVAKAPEGFDGPRPVVIGAGPCGLFAGLILAQMGLKPIIVDRGKVVRERTKDTWGLWRRSELNPESNVQFGEGGAGTFSDGKLYSQIKDPRFLGRKVLTEFVKAGAPEEILTEAHPHIGTFRLVHMVENMRALIESLGGEYRWQHRVEDFDIEVGEDGVRRVTGLHIAGQGHLPARHVVMALGHSSRDTFQVLYDRGVHIEAKPFSIGVRIEHPQSWIDRARFGDCAGHKDLGAAAYAISHHAKNGRTVYSFCMCPGGTVVAATSEPGRVVTNGMSQYSRNERNANSGFVVDIDPERDYPGHPLAGVDFQRKWESLAFQAGGGTYQAPGQLVGDFLAGRPSTVFGAVTPSYKPGVHLTDLAQCLPDFAIEAMREALPIFGRQIPGYDHPDVVLTGVETRTSSPVRITRGKDFQSLNTAGLYPAGEGAGYAGGILSAAVDGIKVAEAVAKQYVAEGLISACLEHHHHHH”, the “soluble on expression in E. coli” value is “soluble”.

Take “MTTVFDVPAAEMIDKLAGILKENENVVPPQWAGNVKTGVHKDLPPTNDDWWYVRCAAVLRKIYTDGPIGIERLRSVYGGKKDNGSQPYHKAKGSGSIARKSVQQLEAAGFLQKVKDGRTVSAKGRSMMDNAAHELKQELLEKIPELAKYLEHHHHHH”: the “soluble on expression in E. coli” value is “soluble”.

For “MGSDKIHHHHHHMGEIMKFYDREKELNYLKTYCQLEPNSILFVYGPKSSGKSTVMRRVIKELENSNIVFFYYNLRKYATPTRDEFLRVFFEKSDKKYLLNKLELNLGVCKFGIEENFDFNNLCLNDVFAKINESINAVVEEGKKPVLIIDELQKLKNIYFNGGKSLLNELFNLFVSLTKMEHLCHVICLTSDTLFIDEIYRNSTLKNASEYYLIDWLRKGTIRNILKEEGFSEEEINYALDYLSLPYEISQLINNKKLGLSVEQTIKQWINVEKDGLKYLIDTTDLDEEGLYNVLSKFKDKIKISYDKEVKKEEMKYLKFLIENEILFYDVINGIIKPTSIIEWHAIKEIINAMQ”, the “soluble on expression in E. coli” value is listed as “not soluble”.

With “MGSDKIHHHHHHMEKAERLTGTPDYAVLPGRILDKTLAGRGLQKAEFAERCGHSAKMISEIIAGKAPIMPETALEFERVLGMPASYWLTLESLYRLRLAEQRDRQRLSDQRDWAKRFPIAAMVRLGWIDKPSDRVDEVAKLLAFFGVASVEAWQAMTASAAEQIAYRRSPSFQSAPESVSAWLRRGEMVAGARPCGPFDEAGFRRVLKSVRELTREAPEVFQPSLIERCACVGVAVVFTPELPKTCLSGATRWLSKDKALIQLSLRHKTDDHLWFTFFHEAGHVLLHPKKLILEEKLKKGEAPTPESAQREREANVFAATTLIPRSAWMAFTAAGDFSAPRIRAFAKEHSLSPGIIVGQLQHDSHLSYATTLNSLKTTFRWPAESAVSHPSV”, the “soluble on expression in E. coli” value is “not soluble”.

Take “MTEDNIAPITSVKRLVTDKCTYKDNELLTKYSYENAVVTKTASGRFDVTPTVQDYVFKLDFEKKPEKLGIMLIGLGGNNGSTLVASVLANKHNVEFQTKAKGVKQPNYFGSMTQCSTLKLGIDAEGNDVYAPFNSLLPMVSPKHFVVSGWDINNADLYEAMQRSQVLEYDLQQRLKAKMSLVKPLPSIYYPDFIAANQDERANQCINLDEKGNVTTRGKWTHLQRIRRDIQNFKEENALDKVIVLWTANTERYVEVSPGVNDTMENLLQSIKNDHEEIAPSTIFAAASILEGVPYINGSPQNTFVPGLVQLAEHEGTFIAGDDLKSGQTKLKSVLAQFLVDAGIKPVSIASYNHLGNNDGYNLSAPKQFRSKEISKSSVIDDIIASNDILYNDKLGKKVDHCIVIKYMKPVGDSKVAMDEYYSELMLGGHNRISIHNVCEDSLLATALIIDLLVMTEFCTRVSYKKVDPVKEDAGKFENFYPVLTFLSYWLKAPLTRPGFHPVNGLNKQRTALENFLRLLIGLPSQNELRFEERLL”: the “soluble on expression in E. coli” value was “soluble”.

Consider “QFKVKSAFKKYSQVATQNGVTGAQAALRILQRGGLENVNVEMTSGMLSDHYDPRQKVLRLSEEVYSLPSIASVGVAAHEAGHALQDKVNYSPLAIRSAM”, for which the “soluble on expression in E. coli” value is reported as “not soluble”.

For the sequence “MIAPRLVSIIIPTLNEEDAIAPTLRQARRQEGPVEILVADGGSTDDTRSVAQARGATVLQAPRGRAPQMNHGADCSSGDILLFLHADTRLPPNGLSRIRRALAAPDAIAGTFRLRFDDPTPLLRFYAWCTRWPWIRLCFGDRGQFVERSAFEAVGGFPDWPLFEDLELAARLQGHGRFRFLDAAVTTSARRFRRHGPLRQQLLNLYLWGHYLWGTDPDLLASLYPDRLGPVDQQPRSLEHHHHHH”, the “soluble on expression in E. coli” value is given as “soluble”.

For “MNEEGGYLGAMTYQCLYSPVMEKIKQQHRDDPRASLALNKLHTALTTCEQASPSFLYDFTKVLLDDSELSVNLQESYLRMHDTSPTNDLIVSGYEQNADYKELTKRAIELRRVLSRVPEEMSDRHAFLETIKLIASSIKKLLEAINAVYRIVPLTAQPAVEKRKREFVHYSKRFSNTLKTYFKDQNANQVSVSANQLVFQTTMIVRTINEKLRRG”, the “soluble on expression in E. coli” value is “not soluble”.

With “MAHHHHHHMGVCLASLMVRRSRISEVPDRYIEERRRYGPVAVACAPPEDDVSSAVYRAAGITDEEHRRICKEWYEGENIVHRLEEICAERSDRRALAYRTVQKVETEKKTDSKGHTRNWEVTYLNDPTYMTYNEFWSRLIAFGKGLRELGLAEGAAVAIAEDVRWEWLASVLAGWTQGLISVTVYANLGEAALLHALKEAECPALICNGNAVKKLVPLLHKAKLNNTMVIYLDALPAGVDAEGMMLLSWTDVLQKGLQSCFSYTIPSDCNRTALIMYTSGTVAEPKGVIHTFGSLKTGAAALEDRLTELLGPKEEGETYLAYLPLAHILEFITEMIMLNRGSLLCYGSPRTLSDMSARPRGDLAEFRPMMFVGVPRIFETIRKNVESQLPPVGSVKRSIFDAAYAARLRAIEDGKDTPF”, the “soluble on expression in E. coli” value is listed as “soluble”.

As for “MGSDKIHHHHHHMLATTIGSIAMRRRVSSLVKVRPAGAATQPALGLRVPLVALVQALAVAEHLNFRHAADALGISQSSVSTRIKQLEQDLGVQLFERRHRGVRLTEAGQHFLEHVATGIEHLDHAVRTAGAIARGERGRLRVGLYSSIFAGFLAELLGQFRGQYPTVDLQIMEGRARDTIRAVREARLDVAFVVGVPKVSDCHSKPLWTEALFVALPERHALAEAEGVTWPALSGASFLARTGGPGPQVHDHIVLRLAGHWCQPRIQRFDVERDTLMSMVAQGYGITLTSEAAAQVPFPGVVFRPVLDETELITFSALWSPHNRCQTLLHLLALAEQKSEGRSLGI”, the “soluble on expression in E. coli” value is “not soluble”.

For the sequence “MAETVGMILCGGFGKRLRPLTEKIPKPLIEIKEGYTILDKQLFDLKNAGINTVYLLTGFLGERIEERYGDNYKGLRIEYVREEKPLGTLNAIRLGMEAIDGEKQCIIRNGDVVADLNIKKMIHLGEMSDYPLTMFITRMQSPYGIVETSGDKIINFREKPLLDYYINAGVYFSKGNLDFGDFESGDIEKTLFPLMAKENKLGYYREDGLFWMAIDTSKELEEIRKEYRNREDKPWGYEKILINTEKYLTKELFIREGYRTSFHYHEEKDETMYIISGSGYIEFDNRKEYFSKNDTIRIEPGERHSIVAMENTVLHEVSTPHLNDTVRVQDYYTRLEHHHHHH”, the “soluble on expression in E. coli” value is reported as “soluble”.

Take “MAHHHHHHMPRKETKKRKRAPSSAKESVSSTDEQGKRGGAFSKFKEFDVSELLQKPQEVPEIQPVVEEQPCSPCDEVVADPPPLTATDTVEATSEEPAAPIPQLIPPEPLKDLPPDEEFVPLPTIQVVPMMNRALEAQSGLLKEPAPPASIQRVTQPGALPPAMPTALMELLSG”: the “soluble on expression in E. coli” value was “soluble”.

On to “MSLKEESLLEYYAQDSFYAEYSSGTGYEIQERALRSTFSRYMKELHKRNVTGGKLLEIGCGFGFLLDEAKNYFDYRIGTDFSSEAVSHAKKYADNVYCGGLEAIPSDTSTKFDCVITFSVLEHVYNPNTFIQEIQNYMAPNGSLVVSTPFIGGMWYKILGKKWSFFIPPEHVCLYNHNSISQLLKQNGFKNIEMFISSHAWPVAGFLSKMGMRKLSSMTLKLKIGDVPLFVPFTIINIIGSKEGHHHHHH”, for which the “soluble on expression in E. coli” value is recorded as “not soluble”.
